Experimental findings from paper PMC5651216, “Structural Basis for a Safety-Belt Mechanism That Anchors Condensin to Chromosomes” are described below.

Data set [1] concerns Ct Ycg1 24-1006;Ct Brn1 515-634 (Chaetomium thermophilum;Chaetomium thermophilum). Briefly: EMSA. As to conditions: protein conc. at which free DNA is depleted; EMSA: 10 mM HEPES-KOH pH 7.5, 125 mM NaCl, 5 mM MgCl2, 1 mM DTT, 30 min, gels at 4 C, 0.2 uM 35-bp or 10 nM 2.1-kb DNA; ITC: 25 mM Tris-HCl pH 7.5, 200 mM …. For orientation: In EMSA bound probe runs differently from free probe, usually more slowly.

Data set [2] concerns Ct Ycg1 24-1006;Ct Brn1 PhiD 515-634 (Chaetomium thermophilum;Chaetomium thermophilum). Briefly: EMSA. The note with it: protein conc. at which free DNA is depleted; EMSA: 10 mM HEPES-KOH pH 7.5, 125 mM NaCl, 5 mM MgCl2, 1 mM DTT, 30 min, gels at 4 C, 0.2 uM 35-bp or 10 nM 2.1-kb DNA; ITC: 25 mM Tris-HCl pH 7.5, 200 mM ….
The subject of data set [3] is Ct Ycg1 24-1006;Ct Brn1 deltaN 539-634 (Chaetomium thermophilum;Chaetomium thermophilum). The data set is described as follows: EMSA. As to conditions: protein conc. at which free DNA is depleted; EMSA: 10 mM HEPES-KOH pH 7.5, 125 mM NaCl, 5 mM MgCl2, 1 mM DTT, 30 min, gels at 4 C, 0.2 uM 35-bp or 10 nM 2.1-kb DNA; ITC: 25 mM Tris-HCl pH 7.5, 200 mM ….
In data set [4] the test system is Ct Ycg1 24-1006;Ct Brn1 515-634 (Chaetomium thermophilum;Chaetomium thermophilum). The data set is described as follows: ITC. As to conditions: 2 mM Mg2+, 25 C; EMSA: 10 mM HEPES-KOH pH 7.5, 125 mM NaCl, 5 mM MgCl2, 1 mM DTT, 30 min, gels at 4 C, 0.2 uM 35-bp or 10 nM 2.1-kb DNA; ITC: 25 mM Tris-HCl pH 7.5, 200 mM ….
Data set [5] has as its target T1, Sc Ycg1 crystallization construct;Sc Brn1 short kleisin loop (Saccharomyces cerevisiae;Saccharomyces …, UniProt Q06680;P38170 6-932;384-529, del499-555|del418-444).
T1 sequence 1: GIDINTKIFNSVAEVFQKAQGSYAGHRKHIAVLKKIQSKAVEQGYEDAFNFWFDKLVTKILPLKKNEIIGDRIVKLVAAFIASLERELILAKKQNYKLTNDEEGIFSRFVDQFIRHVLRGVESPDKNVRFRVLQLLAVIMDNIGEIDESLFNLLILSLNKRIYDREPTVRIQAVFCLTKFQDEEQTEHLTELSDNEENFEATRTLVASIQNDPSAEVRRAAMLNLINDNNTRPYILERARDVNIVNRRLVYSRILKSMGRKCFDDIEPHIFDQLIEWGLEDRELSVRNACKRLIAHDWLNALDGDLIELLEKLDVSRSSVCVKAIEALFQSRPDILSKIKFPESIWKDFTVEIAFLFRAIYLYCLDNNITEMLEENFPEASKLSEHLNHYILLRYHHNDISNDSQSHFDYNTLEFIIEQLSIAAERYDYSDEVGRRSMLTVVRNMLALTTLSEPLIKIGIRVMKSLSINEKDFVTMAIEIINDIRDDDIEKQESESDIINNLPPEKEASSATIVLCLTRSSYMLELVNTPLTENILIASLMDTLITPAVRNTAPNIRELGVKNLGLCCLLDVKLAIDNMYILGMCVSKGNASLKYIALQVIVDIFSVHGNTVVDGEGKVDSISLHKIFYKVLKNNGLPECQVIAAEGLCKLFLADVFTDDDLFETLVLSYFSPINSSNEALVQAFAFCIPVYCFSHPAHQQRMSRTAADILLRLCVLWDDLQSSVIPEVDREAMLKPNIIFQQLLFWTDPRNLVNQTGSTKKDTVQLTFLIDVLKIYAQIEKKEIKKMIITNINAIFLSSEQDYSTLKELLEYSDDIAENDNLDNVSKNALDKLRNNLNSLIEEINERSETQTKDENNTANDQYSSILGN
T1 sequence 2: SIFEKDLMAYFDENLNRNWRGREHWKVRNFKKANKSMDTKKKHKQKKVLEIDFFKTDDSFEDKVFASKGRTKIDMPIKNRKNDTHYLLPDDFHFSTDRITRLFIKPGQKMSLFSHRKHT
Briefly: X-ray crystallography; 5 mM MgSO4; EMSA: 10 mM HEPES-KOH pH 7.5, 125 mM NaCl, 5 mM MgCl2, 1 mM DTT, 30 min, gels at 4 C, 0.2 uM 35-bp or 10 nM 2.1-kb DNA; ITC: 25 mM Tris-HCl pH 7.5, 200 mM NaCl, 2 mM MgCl2, 1 mM BME, 25 C. As to conditions: protein: recombinant;recombinant; tags: untagged;N-terminal His6-HRV3C; copies: 1;1; blunt, self-complementary.

The target in data set [6] is T2, Sc Ycg1 crystallization construct;Sc Brn1 384-529 (Saccharomyces cerevisiae;Saccharomyces …, UniProt Q06680;P38170 6-932;384-529, del499-555|).
T2 sequence 1: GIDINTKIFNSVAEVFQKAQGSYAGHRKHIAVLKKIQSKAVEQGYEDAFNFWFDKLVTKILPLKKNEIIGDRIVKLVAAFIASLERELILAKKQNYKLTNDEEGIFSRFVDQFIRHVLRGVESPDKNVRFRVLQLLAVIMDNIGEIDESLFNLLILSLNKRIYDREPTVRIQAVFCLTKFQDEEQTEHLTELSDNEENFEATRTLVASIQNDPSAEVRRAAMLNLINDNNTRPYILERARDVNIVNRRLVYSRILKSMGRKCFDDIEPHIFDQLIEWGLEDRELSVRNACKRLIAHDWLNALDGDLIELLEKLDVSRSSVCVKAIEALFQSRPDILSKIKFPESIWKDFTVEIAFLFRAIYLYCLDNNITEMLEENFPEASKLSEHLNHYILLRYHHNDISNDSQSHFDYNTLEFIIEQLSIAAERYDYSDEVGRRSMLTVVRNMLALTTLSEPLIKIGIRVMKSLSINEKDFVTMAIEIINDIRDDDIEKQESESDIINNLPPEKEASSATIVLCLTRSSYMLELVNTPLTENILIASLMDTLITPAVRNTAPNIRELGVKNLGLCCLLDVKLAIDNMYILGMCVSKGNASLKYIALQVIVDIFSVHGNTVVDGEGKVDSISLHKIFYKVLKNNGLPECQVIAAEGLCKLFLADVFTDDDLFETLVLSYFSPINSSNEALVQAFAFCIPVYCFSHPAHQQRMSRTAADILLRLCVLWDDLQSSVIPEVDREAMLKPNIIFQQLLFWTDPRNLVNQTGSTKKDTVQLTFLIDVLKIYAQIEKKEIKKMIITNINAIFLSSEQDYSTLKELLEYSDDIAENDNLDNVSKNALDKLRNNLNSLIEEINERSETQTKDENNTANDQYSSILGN
T2 sequence 2: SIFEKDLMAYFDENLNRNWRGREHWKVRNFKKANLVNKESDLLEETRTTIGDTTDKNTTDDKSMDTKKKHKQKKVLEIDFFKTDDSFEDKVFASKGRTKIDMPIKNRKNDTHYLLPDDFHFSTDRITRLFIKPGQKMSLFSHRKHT
Briefly: X-ray crystallography; crystal form I, 2.98 A, 5 mM MgSO4; EMSA: 10 mM HEPES-KOH pH 7.5, 125 mM NaCl, 5 mM MgCl2, 1 mM DTT, 30 min, gels at 4 C, 0.2 uM 35-bp or 10 nM 2.1-kb DNA; ITC: 25 mM Tris-HCl pH 7.5, 200 mM NaCl, 2 mM MgCl2, 1 mM BME, 25 C. The note with it: protein: recombinant;recombinant; tags: untagged;N-terminal His6-HRV3C; copies: 1;1; blunt, self-complementary.

For data set [7], the target named is Sc Smc2;Sc Smc4;Sc Ycs4;Sc Ycg1;Sc Brn1 BC1/2 (Saccharomyces cerevisiae;Saccharomyces …, UniProt P38989;Q12267;Q06156;Q06680;P38170 1-1170;1-1418;1-1176;1-1035;1-754, ||||K409D;R411D;K414D;K451D;K452D;K454D;K456D;K457D). Briefly: EMSA; EMSA: 10 mM HEPES-KOH pH 7.5, 125 mM NaCl, 5 mM MgCl2, 1 mM DTT, 30 min, gels at 4 C, 0.2 uM 35-bp or 10 nM 2.1-kb DNA; ITC: 25 mM Tris-HCl pH 7.5, 200 mM NaCl, 2 mM MgCl2, 1 mM BME, 25 C. As to conditions: protein: recombinant;recombinant;recombinant;recombinant;recombinant; tags: ;C-terminal StrepII x3;;;C-terminal His12-HA3; copies: 1;1;1;1;1; label: 5' 6-FAM on strand 1; blunt.

In data set [8] the target is Sc Smc2;Sc Smc4;Sc Ycs4;Sc Brn1 (Saccharomyces cerevisiae;Saccharomyces …, UniProt P38989;Q12267;Q06156;P38170 1-1170;1-1418;1-1176;1-754, |||). Briefly: EMSA; lacks Ycg1; EMSA: 10 mM HEPES-KOH pH 7.5, 125 mM NaCl, 5 mM MgCl2, 1 mM DTT, 30 min, gels at 4 C, 0.2 uM 35-bp or 10 nM 2.1-kb DNA; ITC: 25 mM Tris-HCl pH 7.5, 200 mM NaCl, 2 mM MgCl2, 1 mM BME, 25 C. The note with it: protein: recombinant;recombinant;recombinant;recombinant; tags: ;C-terminal StrepII x3;;C-terminal His12-HA3; copies: 1;1;1;1; label: 5' 6-FAM on strand 1; blunt.
Sequence of Sc Smc2;Sc Smc4;Sc Ycs4;Sc Brn1 (P38989 whole entry, chain 1 of 4): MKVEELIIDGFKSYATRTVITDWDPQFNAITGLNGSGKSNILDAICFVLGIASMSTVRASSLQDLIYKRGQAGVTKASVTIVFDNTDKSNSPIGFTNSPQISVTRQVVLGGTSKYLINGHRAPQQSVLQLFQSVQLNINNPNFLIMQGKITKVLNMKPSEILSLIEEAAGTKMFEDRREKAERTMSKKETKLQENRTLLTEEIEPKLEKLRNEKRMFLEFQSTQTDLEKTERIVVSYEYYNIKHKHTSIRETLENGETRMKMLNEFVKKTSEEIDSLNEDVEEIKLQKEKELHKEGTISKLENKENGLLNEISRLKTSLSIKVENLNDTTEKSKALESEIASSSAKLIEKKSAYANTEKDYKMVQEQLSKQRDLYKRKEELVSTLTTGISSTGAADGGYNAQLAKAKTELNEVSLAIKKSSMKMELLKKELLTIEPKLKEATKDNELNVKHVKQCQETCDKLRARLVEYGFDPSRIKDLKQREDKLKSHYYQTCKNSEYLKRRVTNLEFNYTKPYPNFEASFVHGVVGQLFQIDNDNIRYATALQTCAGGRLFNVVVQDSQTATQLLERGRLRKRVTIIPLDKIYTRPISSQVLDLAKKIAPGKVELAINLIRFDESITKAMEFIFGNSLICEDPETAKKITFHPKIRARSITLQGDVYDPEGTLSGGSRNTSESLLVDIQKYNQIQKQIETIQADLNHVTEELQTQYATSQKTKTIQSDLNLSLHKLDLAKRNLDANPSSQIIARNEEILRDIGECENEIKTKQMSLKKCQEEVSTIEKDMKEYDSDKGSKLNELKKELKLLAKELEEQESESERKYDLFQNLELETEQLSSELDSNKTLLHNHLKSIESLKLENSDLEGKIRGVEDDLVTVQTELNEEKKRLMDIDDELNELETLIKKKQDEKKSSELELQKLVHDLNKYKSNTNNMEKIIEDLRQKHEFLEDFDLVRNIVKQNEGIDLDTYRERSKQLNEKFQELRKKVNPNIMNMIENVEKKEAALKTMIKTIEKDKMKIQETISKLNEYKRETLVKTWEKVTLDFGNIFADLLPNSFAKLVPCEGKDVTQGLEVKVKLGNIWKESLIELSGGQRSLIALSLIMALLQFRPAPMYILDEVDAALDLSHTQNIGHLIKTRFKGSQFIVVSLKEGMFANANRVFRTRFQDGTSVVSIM
Sequence of Sc Smc2;Sc Smc4;Sc Ycs4;Sc Brn1 (Q12267 whole entry, chain 2 of 4): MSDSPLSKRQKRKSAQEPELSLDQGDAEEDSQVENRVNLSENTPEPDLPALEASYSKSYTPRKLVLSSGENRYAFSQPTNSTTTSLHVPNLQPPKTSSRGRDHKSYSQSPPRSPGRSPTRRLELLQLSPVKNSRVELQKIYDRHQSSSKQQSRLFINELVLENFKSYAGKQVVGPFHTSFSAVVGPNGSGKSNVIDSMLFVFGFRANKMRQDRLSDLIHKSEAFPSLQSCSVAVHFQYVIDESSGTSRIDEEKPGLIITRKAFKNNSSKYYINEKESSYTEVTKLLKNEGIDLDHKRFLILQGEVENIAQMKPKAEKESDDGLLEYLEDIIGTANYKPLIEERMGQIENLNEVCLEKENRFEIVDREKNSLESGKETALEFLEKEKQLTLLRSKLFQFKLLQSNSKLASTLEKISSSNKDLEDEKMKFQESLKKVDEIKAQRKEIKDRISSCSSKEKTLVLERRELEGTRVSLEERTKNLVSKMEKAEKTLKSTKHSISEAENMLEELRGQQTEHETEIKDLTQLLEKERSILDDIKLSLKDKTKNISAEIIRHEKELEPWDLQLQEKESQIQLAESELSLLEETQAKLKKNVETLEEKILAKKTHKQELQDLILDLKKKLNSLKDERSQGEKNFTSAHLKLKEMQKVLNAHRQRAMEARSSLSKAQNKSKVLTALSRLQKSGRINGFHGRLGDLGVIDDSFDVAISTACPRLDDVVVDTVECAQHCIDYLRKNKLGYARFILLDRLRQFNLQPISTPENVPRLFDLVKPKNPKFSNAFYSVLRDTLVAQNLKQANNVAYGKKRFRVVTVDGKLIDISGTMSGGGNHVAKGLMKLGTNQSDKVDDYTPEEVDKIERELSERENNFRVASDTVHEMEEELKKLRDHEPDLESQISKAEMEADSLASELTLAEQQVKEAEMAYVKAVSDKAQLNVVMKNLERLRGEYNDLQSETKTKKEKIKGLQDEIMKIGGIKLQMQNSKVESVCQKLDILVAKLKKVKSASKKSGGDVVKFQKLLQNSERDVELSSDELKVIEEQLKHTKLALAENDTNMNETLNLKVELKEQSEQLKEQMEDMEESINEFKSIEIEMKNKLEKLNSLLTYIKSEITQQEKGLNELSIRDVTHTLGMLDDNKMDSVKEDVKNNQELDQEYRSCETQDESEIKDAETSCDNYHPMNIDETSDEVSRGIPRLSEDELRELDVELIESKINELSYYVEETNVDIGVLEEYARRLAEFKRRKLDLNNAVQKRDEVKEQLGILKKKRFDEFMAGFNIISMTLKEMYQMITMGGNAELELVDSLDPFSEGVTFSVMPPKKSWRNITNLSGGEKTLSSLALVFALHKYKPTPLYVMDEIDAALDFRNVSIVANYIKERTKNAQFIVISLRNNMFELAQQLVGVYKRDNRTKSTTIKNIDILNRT
Sequence of Sc Smc2;Sc Smc4;Sc Ycs4;Sc Brn1 (Q06156 whole entry, chain 3 of 4): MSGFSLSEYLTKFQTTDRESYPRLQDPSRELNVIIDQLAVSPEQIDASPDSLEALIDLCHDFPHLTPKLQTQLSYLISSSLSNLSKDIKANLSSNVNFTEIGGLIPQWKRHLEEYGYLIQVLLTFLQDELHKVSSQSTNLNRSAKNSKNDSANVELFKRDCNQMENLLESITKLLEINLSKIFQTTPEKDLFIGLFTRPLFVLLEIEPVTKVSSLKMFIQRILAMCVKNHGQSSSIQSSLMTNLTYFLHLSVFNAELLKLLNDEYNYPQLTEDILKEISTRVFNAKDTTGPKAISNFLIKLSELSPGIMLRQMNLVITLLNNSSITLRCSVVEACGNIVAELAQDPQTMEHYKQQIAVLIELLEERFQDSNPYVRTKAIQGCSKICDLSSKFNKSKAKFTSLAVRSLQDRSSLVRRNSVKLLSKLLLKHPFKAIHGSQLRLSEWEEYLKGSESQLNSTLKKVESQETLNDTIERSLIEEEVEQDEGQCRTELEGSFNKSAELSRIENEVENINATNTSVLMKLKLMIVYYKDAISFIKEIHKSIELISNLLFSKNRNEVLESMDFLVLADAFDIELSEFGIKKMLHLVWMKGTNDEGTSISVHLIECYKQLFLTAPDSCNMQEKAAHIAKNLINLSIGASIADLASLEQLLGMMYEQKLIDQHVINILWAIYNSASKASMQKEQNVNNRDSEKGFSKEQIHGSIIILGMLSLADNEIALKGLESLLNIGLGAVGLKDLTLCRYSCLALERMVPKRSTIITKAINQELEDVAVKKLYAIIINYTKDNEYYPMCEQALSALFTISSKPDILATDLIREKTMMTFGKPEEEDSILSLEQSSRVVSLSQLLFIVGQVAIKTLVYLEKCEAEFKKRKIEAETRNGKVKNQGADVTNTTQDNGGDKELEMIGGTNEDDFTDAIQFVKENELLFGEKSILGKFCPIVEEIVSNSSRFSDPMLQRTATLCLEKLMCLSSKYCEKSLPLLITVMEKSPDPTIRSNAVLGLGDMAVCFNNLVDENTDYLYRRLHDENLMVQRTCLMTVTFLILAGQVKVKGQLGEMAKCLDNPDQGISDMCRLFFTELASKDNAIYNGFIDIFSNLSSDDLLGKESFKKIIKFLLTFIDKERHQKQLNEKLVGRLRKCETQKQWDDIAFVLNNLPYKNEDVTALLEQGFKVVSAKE
Sequence of Sc Smc2;Sc Smc4;Sc Ycs4;Sc Brn1 (P38170 whole entry, chain 4 of 4): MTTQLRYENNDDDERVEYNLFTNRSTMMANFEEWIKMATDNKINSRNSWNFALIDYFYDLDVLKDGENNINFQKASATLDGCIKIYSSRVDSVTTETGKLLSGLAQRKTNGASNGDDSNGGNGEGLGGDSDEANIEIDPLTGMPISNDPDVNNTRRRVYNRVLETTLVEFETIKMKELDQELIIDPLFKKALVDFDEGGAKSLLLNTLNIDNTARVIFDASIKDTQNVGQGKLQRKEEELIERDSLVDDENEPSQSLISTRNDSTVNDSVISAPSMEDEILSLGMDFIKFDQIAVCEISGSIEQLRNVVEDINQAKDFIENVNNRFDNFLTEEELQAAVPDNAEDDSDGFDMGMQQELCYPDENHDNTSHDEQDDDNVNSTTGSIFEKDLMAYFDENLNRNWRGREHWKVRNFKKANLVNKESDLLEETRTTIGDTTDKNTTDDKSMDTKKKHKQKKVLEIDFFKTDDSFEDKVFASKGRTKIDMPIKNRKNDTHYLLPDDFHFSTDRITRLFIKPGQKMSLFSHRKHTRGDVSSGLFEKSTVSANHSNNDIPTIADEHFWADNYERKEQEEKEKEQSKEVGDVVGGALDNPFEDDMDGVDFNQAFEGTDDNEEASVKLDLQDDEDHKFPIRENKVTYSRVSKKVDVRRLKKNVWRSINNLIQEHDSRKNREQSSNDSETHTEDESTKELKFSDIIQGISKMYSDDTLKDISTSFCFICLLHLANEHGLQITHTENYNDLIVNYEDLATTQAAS

In the case of 2.1-kb circular supercoiled plasmid, the binding signal in data set [1] amounted to 21 nM; in data set [2], 83 nM; in data set [3], 83 nM.
In the case of “CCTATAGTGAGTCGTTCGATATTACAATTCACTGG (double strand) [35-bp dsDNA]”, the binding signal in data set [1], in data set [2] and in data set [3] was 800 nM in each case.
One may read the Kd as the constant that tells how readily two partners part at equilibrium. The low end stands for a tighter complex, the high end for a looser complex. “CCTATAGTGAGTCACAATTCACTGG (double strand) [25-bp dsDNA]” yielded a Kd in data set [4] of 1700 nM.

B1: 18-bp palindromic dsDNA (dsDNA)
DNA 1: GATGTGTAGCTACACATC
DNA 2: GATGTGTAGCTACACATC
Turning to B1, the binding result in data set [5] and in data set [6] was “binds” in each case.

B2: 35-bp dsDNA (dsDNA)
DNA 1: CCTATAGTGAGTCGTTCGATATTACAATTCACTGG
DNA 2: CCAGTGAATTGTAATATCGAACGACTCACTATAGG
With B2, the binding result in data set [7] and in data set [8] was “no binding” each time.
